Data reported in the supplement of paper PMC10126150.
± gives the standard deviation of the averaged measurements.

test system: ATP; test: switch fluorescence ratio, 500 uM ATP over buffer (Cy3 cluster intensity, sum of 5 cycles each) (fold (ratio)); higher = stronger signal-on switching upon ATP binding; sequences stand for … in TCGTCGGCAGCGTCAGATGTGTATAAGAGACAGTTTTTTTTTTTTTTTTTTTTTTTTT…TC; settings: aptamer strand: ATP DNA aptamer (quencher-CACCTGGGGGAGTATTGCGGAGGAAGG + anchor), 100 nM annealed; ATP concentration: 500 uM
Procedure, shortened: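 After annealing to 100 nM quencher-labelled ATP aptamer, Cy3-labelled switching-strand clusters on a modified Illumina MiSeq flow-cell were imaged in selection buffer. A second image followed after 15 min with 500 uM ATP at 22 °C, and five such buffer/ATP cycles were done, each separated by NaOH stripping and re-annealing. The fluorescence ratio, averaged per switch-domain sequence, is summed target-cycle over summed buffer-cycle Cy3 intensity per cluster, with clusters outside 100-1000 RFU excluded.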
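Note: ATP exposure 15 min at 22 °C before imaging.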

Sequence	switch fluorescence ratio
TTCGGTCGGG	0.987 ± 0.028
TTCGGTTACG	1.01 ± 0.011
TTCGGTTGTG	0.96 ± 0.013
TTCGGTTTGG	0.9952 ± 0.0061
TTCGGTTTTC	0.984 ± 0.033
TTCGGTTTTG	0.993 ± 0.031
TTCGGTTTTT	1.02 ± 0.011
TTCGTAAAAA	1.09 ± 0.089
TTCGTACTAT	0.993 ± 0.039
TTCGTAGTGG	1 ± 0.013
TTCGTAGTTT	0.964 ± 0.023
TTCGTATTGT	0.975 ± 0.018
TTCGTCCTGG	1.01 ± 0.056
TTCGTCGGTA	1.09 ± 0.15
TTCGTCTTTT	0.98 ± 0.016
TTCGTGGCCC	0.9572 ± 0.003
TTCGTGGGTG	1.03 ± 0.075
TTCGTGTTAT	0.995 ± 0.021
TTCGTTAGCG	0.996 ± 0.022
TTCGTTATAC	2.29 ± 1.1
TTCGTTCCGT	1.03 ± 0.019
TTCGTTCTTT	1.005 ± 0.0043
TTCTAAAAAG	0.995 ± 0.035
TTCTAATGGT	1.01 ± 0.073
TTCTACGGTA	1.69 ± 0.68
TTCTACTTTG	1.035 ± 0.0074

Sequence	switch fluorescence ratio
TTCTACTTTT	1.01 ± 0.053
TTCTAGTCGT	0.971 ± 0.019
TTCTATTTCT	0.9872 ± 0.0039
TTCTCCGGGT	1.24 ± 0.32
TTCTCGATCT	1.03 ± 0.037
TTCTCTGTAA	2.66 ± 1.6
TTCTGAGGGA	1 ± 0.03
TTCTGAGGGG	1.03 ± 0.035
TTCTGCAGGG	0.997 ± 0.043
TTCTGCGCCC	2.52 ± 2
TTCTGGAAAA	1.05 ± 0.064
TTCTGGGGCA	1.05 ± 0.055
TTCTGGGTCT	0.9833 ± 0.0042
TTCTGTATTG	1.03 ± 0.035
TTCTTACGTC	1 ± 0.011
TTCTTCTCAA	1.15 ± 0.065
TTCTTGAGTA	0.984 ± 0.019
TTCTTGCTAC	1.78 ± 0.036
TTCTTGGACG	1.05 ± 0.16
TTCTTGGCGG	1 ± 0.07
TTCTTTGTGA	1 ± 0.054
TTCTTTTGTA	1.06 ± 0.076
TTGAAAAAAA	1.2 ± 0.27
TTGAAAAAAC	1.04 ± 0.074
TTGAAAAAGG	0.968 ± 0.018
TTGAAAAATT	1.03 ± 0.016

Sequence	switch fluorescence ratio
TTGAAAATGA	0.979 ± 0.016
TTGAACCCGA	1.01 ± 0.023
TTGAAGAAAA	1.97 ± 1.3
TTGAAGGCAA	1.59 ± 0.076
TTGAAGGGGT	1.08 ± 0.1
TTGAAGGGTT	0.9978 ± 0.0033
TTGAAGTAAG	0.994 ± 0.019
TTGAATGAAT	1.015 ± 0.0031
TTGAATGCAT	0.969 ± 0.13
TTGAATTAAG	0.982 ± 0.032
TTGAATTATT	1.03 ± 0.013
TTGAATTGCT	0.986 ± 0.032
TTGAATTTCT	0.992 ± 0.016
TTGACAAACG	1.1 ± 0.054
TTGACAAGGG	0.997 ± 0.015
TTGACAATGT	1.03 ± 0.095
TTGACAGGTT	1.15 ± 0.19
TTGACCAATA	1.12 ± 0.016
TTGACCTGAG	1.08 ± 0.013
TTGACGGGGA	1.12 ± 0.17
TTGACGTCGG	0.985 ± 0.018
TTGACGTGTT	1.03 ± 0.047
TTGACTGGAA	1.02 ± 0.011
TTGACTGGAG	1 ± 0.011
